Laboratory results: patent US20240400693A1 (Chugai, published 2024)

How the values were obtained:
HLA-DQ7.5 on Ba/F3 cells = target: T1, HLA-DQ7.5 on Ba/F3 cells (human, UniProt P01909 24-216; P01920 33-230, limits assumed); test: FACS, Ba/F3 cells; %MFI: IC17dK 0, DQN0139bb 100
T1 construct: whole, on cells; also called Ba/F3-HLA-DQ7.5

HLA-DQ8 on Ba/F3 cells = target: T2, HLA-DQ8 on Ba/F3 cells (human, UniProt P01909 24-216; P01920 33-230, limits assumed); test: FACS, Ba/F3 cells; %MFI: IC17dK 0, DQN0139bb 100
T2 construct: whole, on cells; also called Ba/F3-HLA-DQ8
T2 MHC II alpha: not shown
T2 MHC II beta: not shown

HLA-DQ7.3 on Ba/F3 cells = target: T3, HLA-DQ7.3 on Ba/F3 cells (human, UniProt P01909 24-216; P01920 33-230, limits assumed); test: FACS, Ba/F3 cells; %MFI: IC17dK 0, DQN0139bb 100
T3 construct: whole, on cells; also called Ba/F3-HLA-DQ7.3
T3 MHC II alpha: not shown
T3 MHC II beta: not shown

HLA-DQ2.2 on Ba/F3 cells = target: T4, HLA-DQ2.2 on Ba/F3 cells (human, UniProt P01909 24-216, limits assumed); test: FACS, Ba/F3 cells; %MFI: IC17dK 0, DQN0139bb 100
T4 construct: whole, on cells; also called Ba/F3-HLA-DQ2.2
T4 MHC II alpha: not shown
T4 MHC II beta: not shown

HLA-DQ2.5 on Ba/F3 cells = target: T5, HLA-DQ2.5 on Ba/F3 cells (human, UniProt P01909 24-216, limits assumed); test: FACS, Ba/F3 cells; %MFI: IC17dK 0, DQN0139bb 100
T5 construct: whole, on cells; MHC class II without fused peptide; also called Ba/F3-HLA-DQ2.5

HLA-DR on Ba/F3 cells = target: T6, HLA-DR on Ba/F3 cells (human, UniProt P01903 26-216; P79483 30-227, limits assumed); test: FACS, Ba/F3 cells; raw MFI
T6 construct: whole, on cells; also called Ba/F3-HLA-DR
T6 MHC II alpha: not shown
T6 MHC II beta: not shown

HLA-DP on Ba/F3 cells = target: T7, HLA-DP on Ba/F3 cells (human, UniProt P20036 29-222; P04440 30-225, limits assumed); test: FACS, Ba/F3 cells; raw MFI
T7 construct: whole, on cells; also called Ba/F3-HLA-DP
T7 sequence (P20036 29-222 limits assumed, chain 1 of 4, other chains not shown): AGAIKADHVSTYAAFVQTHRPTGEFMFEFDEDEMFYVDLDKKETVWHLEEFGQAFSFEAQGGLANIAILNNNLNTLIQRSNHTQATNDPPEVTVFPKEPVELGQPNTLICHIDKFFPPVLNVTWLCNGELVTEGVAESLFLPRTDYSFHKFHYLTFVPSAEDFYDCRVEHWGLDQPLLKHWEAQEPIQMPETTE
T7 sequence (P04440 30-225 limits assumed, chain 2 of 4, other chains not shown): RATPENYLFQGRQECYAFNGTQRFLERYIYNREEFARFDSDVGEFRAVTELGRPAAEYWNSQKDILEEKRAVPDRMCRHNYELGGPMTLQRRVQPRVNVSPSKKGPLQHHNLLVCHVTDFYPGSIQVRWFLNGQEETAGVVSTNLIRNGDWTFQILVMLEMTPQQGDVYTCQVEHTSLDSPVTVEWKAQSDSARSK

HLA-DQ6.3 on Ba/F3 cells = target: T8, HLA-DQ6.3 on Ba/F3 cells (human, UniProt P01920 33-230, limits assumed); test: FACS, Ba/F3 cells; raw MFI
T8 construct: whole, on cells; also called Ba/F3-HLA-DQ6.3
T8 MHC II alpha: not shown
T8 MHC II beta: not shown

HLA-DQ5.1 on Ba/F3 cells = target: T9, HLA-DQ5.1 on Ba/F3 cells (human, limits assumed); test: FACS, Ba/F3 cells; raw MFI
T9 construct: whole, on cells; also called Ba/F3-HLA-DQ5.1
T9 MHC II alpha: not shown
T9 MHC II beta: not shown

[1] = target: HLA-DQ2.5 on IHW09023 cells loaded with gamma 4d gliadin peptide (human; wheat); test: cell-based or functional assay
[2] = target: HLA-DQ2.5 on IHW09023 cells loaded with 33mer gliadin peptide (human; wheat); test: cell-based or functional assay
[3] = target: HLA-DQ2.5 on IHW09023 cells loaded with BC hordein peptide (human; barley); test: cell-based or functional assay
[4] = target: HLA-DQ2.5 on IHW09023 cells loaded with gamma 2 gliadin peptide (human; wheat); test: cell-based or functional assay
[5] = target: HLA-DQ2.5 on IHW09023 cells loaded with gamma 4a gliadin peptide (human; wheat); test: cell-based or functional assay
[6] = target: HLA-DQ2.5 on IHW09023 cells loaded with gamma 1 gliadin peptide (human; wheat); test: cell-based or functional assay
[7] = target: HLA-DQ2.5 on IHW09023 cells loaded with omega1/2 gliadin peptide (human; wheat); test: cell-based or functional assay
[8] = target: HLA-DQ2.5 on IHW09023 cells loaded with gamma 3 gliadin peptide (human; wheat); test: cell-based or functional assay

B1: DQN0344H1013/L0620//DQN0385H1352/L0681-F6 (bispecific antibody)
heavy 1: QVQLVESGGGVVQPGRSLRLSCAASGFTFSSAYWMVWVRQAPGQGLEWMGAVYGGSDTTYYAKWTEGRFTISRDTSKNTLYLQMNSLRAEDTAVYYCAREPLNYYYYGELNVWGQGTLVTVSSASTKGPSVFPLAPSSKSTSGGTAALGCLVKDYFPEPVTVSWNSGALTSGVHTFPAVLKSSGLYSLSSVVTVPSSSLGTQTYICNVNHKPSNTKVDKRVEPKSCDKTHTCPPCPAPELRRGPSVFLFPPKPKDTLMISRTPEVTCVVVDVSHEDPEVKFNWYVDGVEVHNAKTKPREEQYNSTYRVVSVLTVLHQDWLNGKEYKCKVSNKALPAPIEKTISKAKGQPREPQVYTLPPSREEMTKNQVSLTCLVKGFYPSDIAVEWESNGQPENNYKTTPPYLDSDGSFFLYSKLTVDKSRWQEGNVFSCSVLHEALHAHYTREELSLSP
light 1: DIQMTQSPSSLSASVGDRVTITCQATENIYSGLAWYQQKPGKAPKLLIYYVSTLAYGIPARFSGSGSGTDFTLTISSLEPEDFAVYYCQTYEDVSAVTFGQGTKVEIKRTVAAPSVFIFPPSDEQLKSGTAEVVCLLNNFYPREAKVQWKVDNALQSGNSEESVTEQDSKDSTYSLSSTLTLSKADYEKHKVYACEVTHQGLSSPVTKSFNRGEC
heavy 2: QVQLVESGGGVVQPGRSLRLSCAASGFEFSEWYFMSWVRQAPGKGLEWVASIDTGSGSIDYAEWVEGRFTISRDNSKNTLYLQMNSLRAEDTAVYYCARDIGIDYNFWGPGTLVTVSSASTKGPSVFPLAPSSKSTSGGTAALGCLVEDYFPEPVTVSWNSGALTSGVHTFPAVLESSGLYSLSSVVTVPSSSLGTKTYICNVNHKPSNTKVDKRVEPKSCDKTHTCPPCPAPELRRGPSVFLFPPKPKDTLMISRTPEVTCVVVDVSHEDPEVKFNWYVDGVEVHNAKTKPREEQYNSTYRVVSVLTVLHQDWLNGKEYKCKVSNKALPAPIEKTISKAKGQPREPQVYTLPPSRKEMTKNQVSLTCLVKGFYPSDIAVEWESNGQPENNYKTTPPYLDSDGSFFLYSKLTVDKSRWQQGNVFSCSVLHEALHAHYTRKELSLSP
light 2: DIQMTQSPSSLSASVGDRVTITCQTTQSISSYLNWYQQKPGQPPKLLIYYASTKAEGIPARFSGSGLGTDFTLTISSLEPEDFAVYYCHYGISKVSFGQGTKVEIKRTVAAPSVFIFPPSDEQLKSGTAKVVCLLNNFYPREAKVQWKVDNALQSGNSKESVTEQDSKDSTYSLSSTLTLSKADYEKHKVYACEVTHQGLSSPVTKSFNRGEC
**Q.** Does B1 bind (HLA-DQ7.5 on Ba/F3 cells)?
**A.** Result: no binding (tested: 0.05 micro g/mL)

**Q.** Does B1 bind (HLA-DQ8 on Ba/F3 cells)?
**A.** Result: no binding (tested: 0.05 micro g/mL)

**Q.** Does B1 bind (HLA-DQ7.3 on Ba/F3 cells)?
**A.** Result: no binding (tested: 0.05 micro g/mL)

**Q.** Does B1 bind (HLA-DQ2.2 on Ba/F3 cells)?
**A.** Result: no binding (tested: 0.05 micro g/mL)

**Q.** Does B1 bind (HLA-DQ2.5 on Ba/F3 cells)?
**A.** Result: no binding (tested: 0.05 micro g/mL)

**Q.** Does B1 bind (HLA-DR on Ba/F3 cells)?
**A.** Result: no binding (tested: 0.05 micro g/mL)

**Q.** Does B1 bind (HLA-DP on Ba/F3 cells)?
**A.** Result: no binding (tested: 0.05 micro g/mL)

**Q.** Does B1 bind (HLA-DQ6.3 on Ba/F3 cells)?
**A.** Result: no binding (tested: 0.05 micro g/mL)

**Q.** Does B1 bind (HLA-DQ5.1 on Ba/F3 cells)?
**A.** Result: no binding (tested: 0.05 micro g/mL)

**Q.** What about the “IC50 (ng/mL), γ4d gliadin TCR, 100 µM γ4d gliadin” value [1] of the same binder?
**A.** Its value is 3.15 ng/mL.

**Q.** And the “IC50 (ng/mL), α1a gliadin TCR, 250 nM 33mer gliadin” value [2]?
**A.** Its value is 0.26 ng/mL.

**Q.** And the “IC50 (ng/mL), α1b gliadin TCR, 250 nM 33mer gliadin” value [2]?
**A.** Its value is 1.13 ng/mL.

**Q.** What about the “IC50 (ng/mL), α2 gliadin TCR, 250 nM 33mer gliadin” value [2] of the same binder?
**A.** Its value is 0.38 ng/mL.

**Q.** And the “IC50 (ng/mL), BC hordein TCR, 250 nM BC hordein” value [3]?
**A.** Its value is 11.6 ng/mL.

**Q.** And the “IC50 (ng/mL), γ2 gliadin TCR, 250 nM γ2 gliadin” value [4]?
**A.** The value was 279 ng/mL.

**Q.** What about the “IC50 (ng/mL), γ4a gliadin TCR, 25 µM γ4a gliadin” value [5] of the same binder?
**A.** The value was 1730 ng/mL.

**Q.** What about the “IC50 (ng/mL), γ1 gliadin TCR, 250 nM γ1 gliadin” value [6] of the same binder?
**A.** The value was 1.71 ng/mL.

**Q.** What about the “IC50 (ng/mL), ω1 gliadin TCR, 25 µM ω1/2 gliadin” value [7] of the same binder?
**A.** Its value is 1.88 ng/mL.

**Q.** And the “IC50 (ng/mL), ω2 gliadin TCR, 250 nM ω1/2 gliadin” value [7]?
**A.** Its value is 0.27 ng/mL.

**Q.** What about the “IC50 (ng/mL), γ3 gliadin TCR, 100 µM γ3 gliadin” value [8] of the same binder?
**A.** The value was 3.15 ng/mL.
